Results from patent US20260049138A1 (Chugai, published 2026).
Changes are numbered by the printed parent chain. Names may count otherwise.

B1: GLS3000 T92D one-arm antibody (antibody, human IgG1, kappa, L234A L235A, N297A, name in Kabat numbering)
heavy: QVQLVESGGGVVQPGRSLRLSCAASGFTFSNAWMHWVRQAPGKGLEWVAQIKAKSNNYATYYAESVKGRFTISRDDSKNSLYLQMNSLKTEDTAVYYCRYVHYGAYYGVDAWGQGTTVTVSSASTKGPSVFPLAPSSKSTSGGTAALGCLVKDYFPEPVTVSWNSGALTSGVHTFPAVLQSSGLYSLSSVVTVPSSSLGTQTYICNVNHKPSNTKVDKKVEPKSCDKTHTCPPCPAPEAAGGPSVFLFPPKPKDTLMISRTPEVTCVVVDVSHEDPEVKFNWYVDGVEVHNAKTKPREEQYASTYRVVSVLTVLHQDWLNGKEYKCKVSNKALPAPIEKTISKAKGQPREPQVYTLPPSRCELTKNQVSLSCAVKGFYPSDIAVEWESNGQPENNYKTTPPVLDSDGSFFLVSKLTVDKSRWQQGNVFSCSVMHEALHNHYTQKSLSLSPDYKDDDDK
chain: EPKSSDKTHTCPPCPAPELLGGPSVFLFPPKPKDTLMISRTPEVTCVVVDVSHEDPEVKFNWYVDGVEVHNAKTKPREEQYNSTYRVVSVLTVLHQDWLNGKEYKCKVSNKALPAPIEKTISKAKGQPREPQVCTLPPSRDELTKNQVSLWCLVKGFYPSDIAVEWESNGQPENNYKTTPPVLDSDGSFFLYSKLTVDKSRWQQGNVFSCSVMHEALHNRYTQKSLSLSP
light: DIVMTQSPLSLPVTPGEPASISCRSSQSLVHSNRNTYLHWYQQKPGQAPRLLIYKVSNRFSGVPDRFSGSGSGTDFTLKISRVEAEDVGVYYCGQGDQVPYTFGQGTKLEIKRTVAAPSVFIFPPSDEQLKSGTASVVCLLNNFYPREAKVQWKVDNALQSGNSQESVTEQDSKDSTYSLSSTLTLSKADYEKHKVYACEVTHQGLSSPVTKSFNRGEC
B2: GLS3000 V27cS one-arm antibody (antibody, human IgG1, kappa, L234A L235A, N297A, name in Kabat numbering)
heavy: B1 heavy
chain: B1 chain
light: B1 light with V30S, D97T
B3: GLS3000 T92L one-arm antibody (antibody, human IgG1, kappa, L234A L235A, N297A, name in Kabat numbering)
heavy: B1 heavy
chain: B1 chain
light: B1 light with D97L
B4: GLS3000 V94K one-arm antibody (antibody, human IgG1, kappa, L234A L235A, N297A, name in Kabat numbering)
heavy: B1 heavy
chain: B1 chain
light: B1 light with D97T, V99K
B5: GLS3000 V94F one-arm antibody (antibody, human IgG1, kappa, L234A L235A, N297A, name in Kabat numbering)
heavy: B1 heavy
chain: B1 chain
light: B1 light with D97T, V99F
B6: GLS3000 V27cY one-arm antibody (antibody, human IgG1, kappa, L234A L235A, N297A, name in Kabat numbering)
heavy: B1 heavy
chain: B1 chain
light: B1 light with V30Y, D97T
B7: GLS3000 V94P one-arm antibody (antibody, human IgG1, kappa, L234A L235A, N297A, name in Kabat numbering)
heavy: B1 heavy
chain: B1 chain
light: B1 light with D97T, V99P
B8: GLS3000 T92E one-arm antibody (antibody, human IgG1, kappa, L234A L235A, N297A, name in Kabat numbering)
heavy: B1 heavy
chain: B1 chain
light: B1 light with D97E
B9: GLS3000 V51E one-arm antibody (antibody, human IgG1, kappa, L234A L235A, N297A, name in Kabat numbering)
heavy: B1 heavy
chain: B1 chain
light: B1 light with V56E, D97T
B10: GLS3000 V27cP one-arm antibody (antibody, human IgG1, kappa, L234A L235A, N297A, name in Kabat numbering)
heavy: B1 heavy
chain: B1 chain
light: B1 light with V30P, D97T
B11: GLS3000 V94D one-arm antibody (antibody, human IgG1, kappa, L234A L235A, N297A, name in Kabat numbering)
heavy: B1 heavy
chain: B1 chain
light: B1 light with D97T, V99D
B12: GLS3000 T92S one-arm antibody (antibody, human IgG1, kappa, L234A L235A, N297A, name in Kabat numbering)
heavy: B1 heavy
chain: B1 chain
light: B1 light with D97S
B13: GLS3000 V51D one-arm antibody (antibody, human IgG1, kappa, L234A L235A, N297A, name in Kabat numbering)
heavy: B1 heavy
chain: B1 chain
light: B1 light with V56D, D97T
B14: GLS3000 V94H one-arm antibody (antibody, human IgG1, kappa, L234A L235A, N297A, name in Kabat numbering)
heavy: B1 heavy
chain: B1 chain
light: B1 light with D97T, V99H
B15: GLS3000 V51G one-arm antibody (antibody, human IgG1, kappa, L234A L235A, N297A, name in Kabat numbering)
heavy: B1 heavy
chain: B1 chain
light: B1 light with V56G, D97T
B16: GLS3000 T92I one-arm antibody (antibody, human IgG1, kappa, L234A L235A, N297A, name in Kabat numbering)
heavy: B1 heavy
chain: B1 chain
light: B1 light with D97I
B17: GLS3000 V94L one-arm antibody (antibody, human IgG1, kappa, L234A L235A, N297A, name in Kabat numbering)
heavy: B1 heavy
chain: B1 chain
light: B1 light with D97T, V99L
B18: GLS3000 V51P one-arm antibody (antibody, human IgG1, kappa, L234A L235A, N297A, name in Kabat numbering)
heavy: B1 heavy
chain: B1 chain
light: B1 light with V56P, D97T
B19: GLS3000 T97P one-arm antibody (antibody, human IgG1, kappa, L234A L235A, N297A, name in Kabat numbering)
heavy: B1 heavy
chain: B1 chain
light: B1 light with D97T, T102P
B20: GLS3000 V27cI one-arm antibody (antibody, human IgG1, kappa, L234A L235A, N297A, name in Kabat numbering)
heavy: B1 heavy
chain: B1 chain
light: B1 light with V30I, D97T
B21: GLS3000 V94I one-arm antibody (antibody, human IgG1, kappa, L234A L235A, N297A, name in Kabat numbering)
heavy: B1 heavy
chain: B1 chain
light: B1 light with D97T, V99I
B22: GLS3000 V94N one-arm antibody (antibody, human IgG1, kappa, L234A L235A, N297A, name in Kabat numbering)
heavy: B1 heavy
chain: B1 chain
light: B1 light with D97T, V99N
B23: GLS3000 V27cE one-arm antibody (antibody, human IgG1, kappa, L234A L235A, N297A, name in Kabat numbering)
heavy: B1 heavy
chain: B1 chain
light: B1 light with V30E, D97T
B24: GLS3000 V94A one-arm antibody (antibody, human IgG1, kappa, L234A L235A, N297A, name in Kabat numbering)
heavy: B1 heavy
chain: B1 chain
light: B1 light with D97T, V99A
B25: GLS3000 V94G one-arm antibody (antibody, human IgG1, kappa, L234A L235A, N297A, name in Kabat numbering)
heavy: B1 heavy
chain: B1 chain
light: B1 light with D97T, V99G
B26: GLS3000 V94M one-arm antibody (antibody, human IgG1, kappa, L234A L235A, N297A, name in Kabat numbering)
heavy: B1 heavy
chain: B1 chain
light: B1 light with D97T, V99M
B27: GLS3000 V51I one-arm antibody (antibody, human IgG1, kappa, L234A L235A, N297A, name in Kabat numbering)
heavy: B1 heavy
chain: B1 chain
light: B1 light with V56I, D97T
B28: GLS3000 V27cD one-arm antibody (antibody, human IgG1, kappa, L234A L235A, N297A, name in Kabat numbering)
heavy: B1 heavy
chain: B1 chain
light: B1 light with V30D, D97T
B29: GLS3000 T92P one-arm antibody (antibody, human IgG1, kappa, L234A L235A, N297A, name in Kabat numbering)
heavy: B1 heavy
chain: B1 chain
light: B1 light with D97P
B30: GLS3000 V27cL one-arm antibody (antibody, human IgG1, kappa, L234A L235A, N297A, name in Kabat numbering)
heavy: B1 heavy
chain: B1 chain
light: B1 light with V30L, D97T
B31: GLS3000 V94E one-arm antibody (antibody, human IgG1, kappa, L234A L235A, N297A, name in Kabat numbering)
heavy: B1 heavy
chain: B1 chain
light: B1 light with D97T, V99E
B32: GLS3000 T92Y one-arm antibody (antibody, human IgG1, kappa, L234A L235A, N297A, name in Kabat numbering)
heavy: B1 heavy
chain: B1 chain
light: B1 light with D97Y

The binders below were run against T1, CD3ε homodimer protein (human, UniProt P07766 23-126, limits assumed) (assay: SPR Biacore T200, CD3ε homodimer on chip;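 note: Light-chain single-residue variant antibodies injected over amine-coupled CD3ε homodimer on a CM4 chip at 25 °C, bound amount divided by that of the GLS3000-containing antibody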).
T1 construct: also called CD3 (CD3ε)
T1 sequence (P07766 23-126 limits assumed): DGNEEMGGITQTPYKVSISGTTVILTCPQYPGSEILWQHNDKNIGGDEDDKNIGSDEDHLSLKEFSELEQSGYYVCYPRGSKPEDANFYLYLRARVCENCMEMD

In order of rising “ratio of amount bound vs unaltered GLS3000” value:
1. B8  0.17
2. B1  0.18
3. B29  0.26
4. B10  0.3
5. B19  0.31
6. B18  0.32
7. B28  0.32
8. B13  0.33
9. B32  0.33
10. B16  0.34
11. B3  0.42
12. B17  0.44
13. B26  0.44
14. B25  0.48
15. B31  0.5
16. B2  0.51
17. B4  0.57
18. B23  0.61
19. B9  0.64
20. B21  0.66
21. B5  0.71
22. B6  0.77
23. B14  0.78
24. B27  0.81
25. B15  0.84
26. B30  0.84
27. B11  0.89
28. B12  0.96
29. B20  0.96
30. B22  1.05
31. B24  1.05
32. B7  1.26
